Results reported in publication PMC10258192.

Biological target: T1, mEGFP-SRSF2, Q01130
T1 chain: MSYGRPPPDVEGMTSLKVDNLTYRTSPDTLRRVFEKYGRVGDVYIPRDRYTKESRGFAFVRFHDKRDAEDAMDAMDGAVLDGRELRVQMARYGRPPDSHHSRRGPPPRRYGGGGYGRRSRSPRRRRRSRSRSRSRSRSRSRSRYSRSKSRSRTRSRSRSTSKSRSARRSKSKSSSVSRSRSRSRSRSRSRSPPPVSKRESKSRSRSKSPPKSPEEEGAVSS
Assay: SEC-MALS; purified protein, static light scattering after the molecular sieve; before addition of PEG8000
Settings: remark: other sources report otherwise

stoichiometry N: 5000
B1: mEGFP-SRSF2, Q01130 1-221 (natural protein)
chain: T1 chain
